By Kd is commonly meant the free concentration of one partner at which half of the binding sites on the other are occupied at equilibrium, for simple one-to-one binding. In general, koff refers to the rate constant with which the complex falls apart. For orientation: kon means a measure of how fast the partners come together. As usually defined, the EC50 (read off the curve) is the concentration needed to bring the measured effect to its halfway point. As a reminder, the IC50 is the concentration that inhibits the measured activity by half.

In experiment [1] the target is T1, recombinant human LAG-3-Fc (human, UniProt P18627 23-450).
T1 construct: also called human LAG-3 (R&D Systems cat no. 2319-L3); LAG3 antigen
T1 sequence: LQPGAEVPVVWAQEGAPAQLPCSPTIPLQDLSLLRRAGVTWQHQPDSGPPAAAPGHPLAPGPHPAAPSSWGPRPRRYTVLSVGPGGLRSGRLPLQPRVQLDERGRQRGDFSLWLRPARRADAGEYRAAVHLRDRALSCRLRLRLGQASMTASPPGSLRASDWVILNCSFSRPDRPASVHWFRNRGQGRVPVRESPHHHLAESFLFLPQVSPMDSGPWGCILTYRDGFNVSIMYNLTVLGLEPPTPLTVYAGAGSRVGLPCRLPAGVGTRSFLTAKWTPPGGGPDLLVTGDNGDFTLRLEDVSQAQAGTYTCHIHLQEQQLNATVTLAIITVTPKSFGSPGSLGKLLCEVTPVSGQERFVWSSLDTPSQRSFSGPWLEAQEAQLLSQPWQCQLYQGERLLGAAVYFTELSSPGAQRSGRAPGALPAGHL
As to the kind of experiment: BLI (Octet); human LAG-3-Fc captured on protein G biosensors, 1:1 fit. (In general: In BLI a coated tip is dipped into the sample, and binding shifts an interference pattern.)

Experiment [2] addresses T2, human LAG-3 expressed on cells (human, UniProt P18627 23-525).
T2 construct: also called CHO cells expressing human LAG-3; CHO human LAG-3 cells
T2 sequence: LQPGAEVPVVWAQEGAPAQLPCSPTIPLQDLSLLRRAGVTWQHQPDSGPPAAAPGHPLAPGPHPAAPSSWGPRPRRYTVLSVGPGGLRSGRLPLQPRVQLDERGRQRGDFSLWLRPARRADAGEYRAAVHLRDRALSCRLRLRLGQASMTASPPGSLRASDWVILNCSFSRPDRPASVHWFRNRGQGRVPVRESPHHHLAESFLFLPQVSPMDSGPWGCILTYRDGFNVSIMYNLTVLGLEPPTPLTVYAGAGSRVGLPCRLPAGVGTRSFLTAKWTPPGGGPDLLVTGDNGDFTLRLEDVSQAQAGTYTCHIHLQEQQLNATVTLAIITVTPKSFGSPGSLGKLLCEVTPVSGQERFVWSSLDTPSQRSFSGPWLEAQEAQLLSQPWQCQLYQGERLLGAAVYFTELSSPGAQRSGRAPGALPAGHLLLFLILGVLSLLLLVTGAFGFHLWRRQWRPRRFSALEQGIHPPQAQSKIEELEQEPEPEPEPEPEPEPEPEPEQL
As to the kind of experiment: flow cytometry (Intellicyte) on anti-CD3/anti-CD28 stimulated human CD4+ T cells; His-tagged VH detected with anti-HIS biotin and streptavidin AlexaFluor488. The procedure:
FIG. 2. CD4+ T cells were stimulated with anti-CD3 and anti-CD28. Cells were stained with HIS tagged VH plus anti-HIS tag labelled with biotin and streptavidin AlexaFluor488. Cells were analysed using Intellicyte® cytometer.
Binding onto human activated T cells was measured by cytometry. PBMC or magnetically isolated T cells were isolated from leukocytes cones and cells were incubated in 96 well plates coated with anti-CD3 (OKT3) at 5 μg/ml. Anti-CD28 (CD28.2) was added at 1 μg/ml in RPMI media and foetal bovine serum. After 72-96 hours, cells were harvested and stained using standard flow cytometry methods. […] Fluorescently labelled anti-CD4 and anti-CD8 were included in PBMC cultures and a live/dead dye. Stained cells were analysed using the IQue cytometer (Intellicyte). EC50 were calculated from the titration curve of median fluorescence of Humabody, gating on CD4+ or CD8+ cells if using mixed cells.
Background: Flow cytometry measures light scatter and fluorescence of single cells or particles in a stream.

The target in experiment [3] is T3, Rhesus monkey LAG-3 (used as cynomolgus LAG-3) (Rhesus monkey (called cynomolgus in the …)).
T3 construct: extracellular domain
As to the kind of experiment: ELISA, coated antigen, VH at 10 µg/ml, anti-HIS HRP. The procedure:
(§1) To screen specificity by ELISA, antigens were coated at 1-5 ug/ml and blocked with Marvel milk powder. VH were added at 10 μg/ml and incubated for 1 hour. After washing, HRP-conjugated anti-HIS antibody (Miltenyi cat no. 130-092-785) was added. TMB substrate and acidic solution were used to develop colorimetric signal.

The target in experiment [4] is T1, recombinant human LAG-3-Fc. The description is as above. On the procedure:
as §1

Experiment [5] deals with T4, human LAG-3 domains 1-2-Fc (human, UniProt P18627 23-261, limits assumed).
T4 construct: Domains were identified as per Huard et al 1997 PNAS 94:5744-9; also called truncated LAG-3
T4 sequence: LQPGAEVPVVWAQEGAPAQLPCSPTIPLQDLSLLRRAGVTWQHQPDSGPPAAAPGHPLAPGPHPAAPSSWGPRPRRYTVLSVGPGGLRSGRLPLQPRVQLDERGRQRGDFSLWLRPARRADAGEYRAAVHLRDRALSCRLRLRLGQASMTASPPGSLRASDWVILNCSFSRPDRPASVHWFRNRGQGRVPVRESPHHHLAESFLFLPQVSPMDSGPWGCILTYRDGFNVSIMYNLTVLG
The experiment is described as above. The procedure:
as §1

The target of experiment [6] is T1, recombinant human LAG-3-Fc. Briefly: competition ELISA; LAG-3-Fc pre-incubated with VH, binding to coated LSECtin. The source says: The plate was blocked with 3% Marvel skimmed milk powder in PBS. […] Wash steps were done 3 times with PBS 0.05% Tween. Colour was developed using TMB and 0.5M sulphuric acid solution.
In general terms: An ELISA detects its analyte on a solid surface through an enzyme-linked reagent.

Experiment [7] deals with T5, recombinant human PD-1 Fc chimera (human, UniProt Q15116 25-167).
T5 construct: Bought Fc chimera; also called human PD-1 (R&D systems cat no. 1086-PD); PD1 antigen
T5 sequence (Q15116 25-167 limits assumed, change not shown): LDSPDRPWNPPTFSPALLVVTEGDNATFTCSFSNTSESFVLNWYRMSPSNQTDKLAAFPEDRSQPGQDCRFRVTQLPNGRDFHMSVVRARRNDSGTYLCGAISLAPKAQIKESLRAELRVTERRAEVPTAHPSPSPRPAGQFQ
As to the kind of experiment: Octet bio-layer interferometry; VH (100 nM) first bound to immobilised LAG3-Fc, then PD-1-Fc added. On the procedure:
Recombinant LAGS-Fc (10 μg/ml) was immobilised by standard amine coupling to amine reactive biosensors in 10 mM sodium acetate at pH6. The binding steps were performed in 0.1% BSA 0.02% Tween20 in PBS. 100 nM of Humabody® were used in the first binding step, followed by binding of human PD1-Fc at 5 μg/ml. The contact time for association and dissociation was 200 seconds.

B1: VH1.1-6GS-VH1.1-His6 (VHH)
chain: EVQLVESGGGVVRPGGSLRLSCSASGFTFDDYGMSWVRQAPGKGLEWVSGIHWNGGNSGYADSVKGRFTISRDNAKNSLYLQMNSLRAEDTALYYCARIPREDCSSASCYTDAIDFWGPGTMVTVSSGGGGSGGGGSGGGGSGGGGSGGGGSGGGGSEVQLVESGGGVVRPGGSLRLSCSASGFTFDDYGMSWVRQAPGKGLEWVSGIHWNGGNSGYADSVKGRFTISRDNAKNSLYLQMNSLRAEDTALYYCARIPREDCSSASCYTDAIDFWGPGTMVTVSSAAAHHHHHH
notes: Tandem fusion of two VH 1.1, bivalent for LAG-3; The entry includes the C-terminal AAA-His6; also called 1.1-6GS-1.1; bivalent 1.1-6GS-1.1
Turning to B1, in experiment [1], the Kd stood at 417 pM, the koff stood at 0.00047 s⁻¹ and the kon was determined as 1.13e+06 M⁻¹ s⁻¹. Also, in experiment [2], the “EC50 (read off the curve)” value is around 100 pM. The “ELISA signal over background” value in experiment [3] is above 10 fold over background. In addition, the “ELISA signal over background” value in experiment [4] was above 10 fold over background. For the same molecule, in experiment [5], the “ELISA signal over background” value is above 10 fold over background. Also, the IC50 in experiment [6] is 55000 pM. For the same molecule, in experiment [7], the binding result was “no binding”.
